From paper PMC7170481, “Inhibition of Ammonia Monooxygenase from Ammonia-Oxidizing Archaea by Linear and Aromatic Alkynes” (Applied and Environmental Microbiology, 2020)

Substrate: N
Assay: cells, lysate or membranes
Conditions: intact cells, total NH3 + NH4+, 0.1% DMSO, no inhibitor, whole-cell nitrite read-out
[1] = 10 mM HEPES pH 7, 37°C, pH 7.0, 37.0 °C
[2] = 50 mM sodium phosphate pH 7.7, 2 mM MgCl2, 30°C, pH 7.7, 30.0 °C

Protein	Km [1]	Vmax [1] [µmol/min/mg]	Km [2]	Vmax [2] [µmol/min/mg]
AMO from "Ca. Nitrosocosmicus franklandus" C13 (Candidatus Nitrosocosmicus franklandianus) (protein) chain 1: MVWLRRTTHYLFIVVVAVNSTLLTINAGDYIFYTDWAWTSFVVFSISQSTMLVVGAIYYMLFTGVPGTATYYATIMTIYTWVAKGAWFALGYPYDFVVVPVWIPSAMLLDLAYWATRRNKHAAILIGGVLVGMSLPLFNMINLLLVADPLEMAFKYPRPTLPPYMTPIEPQVGKFYNSPVALGAGAGAVLCVPIAALGAKLNTWTYRWMAAWSKWD chain 2: MNEKSGNKPAMVFLIVTFVAGASILASIIALLPLADGHGVQAQLQSRFVRINNEAFSAQSLNTGDTLVVTGELQSLVNRPMRGWISLFSESTNAGNRWEFVSRDPPGNIIEIQPQETVPYRLEAKALEPGVYHVHTQLNLASVGPGLGPGQTIQVVGDPILKPIPWNNIIYQSIIIAAGLGVTFATRPWQVI chain 3: MAQMPALIPKEVEIQRLKKIYLMVIMLGSIAASVEVDNFVDGSLHQTAIRDSAFTPAHWWLYSHFIALPLGWGFVAMYDRRVPVLRGPNNSMNTGLKITIIGYLATMFTIGINEMWHFWFVEEIFSVPNHWMFNMGVVVAFMGALAYVVRVYARLVELGAETPARNPYVAEMYKLALEGKLYSRSIP	26.7 (4.7) μM	0.0641		
AMO from Nitrosomonas europaea (Nitrosomonas europaea ATCC 19718) (protein) chain 1: SIFRTEEILKAAKMPPEAVHMSRLIDAVYFPILIILLVGTYHMHFMLLAGDWDFWMDWKDRQWWPVVTPIVGITYCSAIMYYLWVNYRQPFGATLCVVCLLIGEWLTRYWGFYWWSHYPINFVTPGIMLPGALMLDFTLYLTRNWLVTALVGGGFFGLLFYPGNWPIFGPTHLPIVVEGTLLSMADYMGHLYVRTGTPEYVRHIEQGSLRTFGGHTTVIAAFFSAFVSMLMFTVWWYLGKVYCTAFFYVKGKRGRIVHRNDVTAFGEEGFPEGIK chain 2: MTVTLDVSTVAAHGERSQEPFLRMRTVQWYDIKWGPEVTKVNENAKITGKFHLAEDWPRAAAQPDFSFFNVGSPSPVFVRLSTKINGHPWFISGPLQIGRDYEFEVNLRARIPGRHHMHAMLNVKDAGPIAGPGAWMNITGSWDDFTNPLKLLTGETIDSETFNLSNGIFWHVVWMSIGIFWIGVFTARPMFLPRSRVLLAYGDDLLMDPMDKKITWVLAILTLALVWGGYRYTENKHPYTVPIQAGQSKVAALPVAPNPVSIVITDANYDVPGRALRVTMEVTNNGDIPVTFGEFTTAGIRFINSTGRKYLDPQYPRELIAVGLNFDDESAIQPGQTKELKMEAKDALWEIQRLMALLGDPESRFGGLLMSWDAEGNRHINSIAGPVIPVFTKL chain 3: MATTLGTSSASSVSSRGYDMSLWYDSKFYKFGMITMLLVAIFWVWYQRYFAYSHGMDSMEPEFDRVWMGLWRVHMAIMPLFALVTWGWILKTRDTKEQLDNLDPKLEIKRYFYYMMWLGVYIFGVYWGGSFFTEQDASWHQVIIRDTSFTPSHVVMFYGSFPMYIVCGVATYLYAMTRLPLFSRGISFPLVMAIAGPLMILPNVGLNEWGHAFWFMEELFSAPLHWGFVVLGWAGLFQGGVAAQIITRYSNLTDVVWNNQSKEILNNRIVA			520.3 (19.6) μM	0.324
